The labels stand for the following.
B1: Twister Ribozyme (parent)
chain: AACACUGCCAAUGCCGGUCCCAAGCCCGGAUAAAAGUGGAGGGGGCGG

In this data set the parent is B1. Put plainly: self-cleavage, relative activity (ratio to wild type); higher = more cleavage; co-transcriptional.
For the variant G28U, the self-cleavage was 0.91. G7C G41C: the self-cleavage came out at 0.0623.

For A2G U37G, the self-cleavage was 0.173.

A10G G39A: the self-cleavage was determined as 0.564.

With G7U A35U, the self-cleavage was found to be 0.109. The same measure for U18C G45U: 0.228; for G16U G39U: 0.225. The same measure for A1U G16C: 0.0739. The same measure for A4G G41C: 0.181; for U6C C26A: 0.0404; for A40C G42U: 0.139. Consider G24U C46U, for which the self-cleavage was 0.0749. The same measure for A11U G13U: 0.694; for A22G C26G: 0.0488; for G7C C25G: 0.218. With C26G U31A the figure was 0.427; with C5U A32G, 0.795. With A1U A2U the figure was 0.0794; with G13A U31A, 1.02. G16A A33U: the self-cleavage came to 0.858. The same measure for C19U G43C: 0.286; for C20U G48C: 1.04; for G16C C46A: 0.693.

On to C15U G36U, for which the self-cleavage was found to be 0.203. As to C14U C26U, the self-cleavage came out at 0.403. With C9U A23C the figure was 0.0976; with C15A U37C, 0.168. With G38U G45U the figure was 0.707; with G36A G38C, 0.327. With C5U the figure was 0.887. Take C26G A32G: the self-cleavage turned out to be 0.316. With G7U G47C, the self-cleavage was 0.0954. The same measure for A2C A30U: 0.0662; for A11G G29C: 0.679.

Turning to A2G A30G, the self-cleavage was 0.399.

C8A C27U: the self-cleavage was determined as 0.101. With U6A G44C the figure was 0.874; with U18G C46G, 0.0845. With A32C A34U the figure was 0.786. With C5G U18G the figure was 0.0734. As to C15A G43A, the self-cleavage was found to be 0.299. With G17U C27G the figure was 0.424; with C3U C25A, 0.0634. With G29A A30C the figure was 0.865; with G7U C19U, 0.0568; with G17U G42U, 0.126. The same measure for G13U A34U: 0.199; for C20G G43C: 0.101; for U18A C20G: 0.0551. In the case of U12A A40U, the self-cleavage is 0.192. For G16C G36U, the self-cleavage amounted to 0.113. With G7A A33G the figure was 0.243; with C3A G28C, 0.179. With C14G G28C the figure was 0.106; with C20G C26A, 0.0588. Take C19G C21G: the self-cleavage is 0.0223. The same measure for U6C C15U: 0.354; for U6C C15A: 0.169; for C27A A33C: 0.245. With A32C G45A the figure was 0.95; with C14A G38A, 0.874.

C3A G45A: the self-cleavage came out at 0.233. For U12G A30U, the self-cleavage worked out at 0.812. With G13C G24C the figure was 0.0811.

Take G28C G29A: the self-cleavage stood at 1. Consider G16C C19U, for which the self-cleavage was determined as 0.461. The same measure for A10U G48A: 0.959; for U18C C19G: 0.0747; for A2U G7U: 0.0853. Turning to A2U G7A, the self-cleavage amounted to 0.0893.

Consider G39A G41C, for which the self-cleavage came out at 0.126. The same measure for G13C A40C: 0.0965; for A22C G38U: 0.782; for A1C G42A: 0.16. The same measure for A2C C8A: 0.0745; for A10U G45A: 0.999; for A2G C5G: 0.144. The same measure for A2G C5U: 0.153; for G7C A10G: 0.0662; for G16C G42A: 0.139. On to C21U G44U, for which the self-cleavage is 0.0882. The same measure for A2U A30C: 0.182; for A34U G47C: 0.247; for A1C U31G: 0.144. The same measure for G7C A30U: 0.0697. As to A32C G48A, the self-cleavage is 0.929. Regarding C8G G38C, the self-cleavage was 0.145. With A10U U12A the figure was 0.986; with A34G A40G, 0.111; with C25U G45U, 0.592. With C3A C8U the figure was 0.122; with A32G G38U, 0.846; with G17U U31G, 0.339.

For C20G G45U, the self-cleavage was 0.0778. With C5U A23G the figure was 0.23; with C5U A23U, 0.306; with A1U U6G, 0.107. With A1U U6A the figure was 0.0513. With G39C G42C the figure was 0.129; with C5A G45C, 0.16; with C9G C25A, 0.0478.

For A10U G17A, the self-cleavage was found to be 0.532. The same measure for A2C G44A: 0.107. With A32G A35G the figure was 0.718; with C5G G7C, 0.0519; with U37C G47A, 0.478.

With C8A A32G, the self-cleavage came to 0.331.

As to C19A G29C, the self-cleavage is 0.0998. The same measure for G24U G38C: 0.103; for A23U G24U: 0.0593. The same measure for U6G C9U: 0.163. With A2G A11G the figure was 0.164. In the case of C25U G28C, the self-cleavage came to 0.412. The same measure for C19G A33G: 0.175. The same measure for C19U A23U: 0.203; for C15U G45C: 0.64; for C25A G45C: 0.0975. With G41C G42A the figure was 0.125; with C3A A23G, 0.0731; with A22G A23G, 0.0844. Regarding G7U C21G, the self-cleavage was found to be 0.0215. The same measure for G7U C21U: 0.0705; for G7A A30G: 0.405. As to C3U G17C, the self-cleavage stood at 0.0683. The same measure for C21G C25G: 0.0701; for G13U C26G: 0.0668. The same measure for A35C G45U: 0.855. The same measure for G36U G48C: 0.514; for G28C A40G: 0.188.

Take A30G G39C: the self-cleavage was found to be 0.159. On to C3G U12A, for which the self-cleavage was determined as 0.658. With A32C A35G the figure was 0.8; with U18A C26U, 0.158. The same measure for U6A C46U: 1.04.

Turning to U18G G28C, the self-cleavage was determined as 0.102. With A4G U18C the figure was 0.58; with G38C G45A, 0.736. With C3U C14U the figure was 0.376; with G43U G47U, 0.137. With U12A G47U the figure was 1.05; with C21A A40G, 0.0639. Consider A1C C15A, for which the self-cleavage turned out to be 0.179. With C26G G43U the figure was 0.138; with C19G G43C, 0.711; with C3G C20G, 0.0675.

G39U: the self-cleavage was 0.232. With C21G A22U the figure was 0.118; with A4G A32G, 1.05. Regarding G29U U37G, the self-cleavage was determined as 0.418.

As to C21U A32G, the self-cleavage is 0.0636.

C15U G29U: the self-cleavage worked out at 0.652.

For A11C U31G, the self-cleavage was found to be 0.917. The same measure for U6G A40G: 0.137; for C8G C25A: 0.0886; for C8G C25G: 0.0929. As for C9U C46G, the self-cleavage came to 0.651.

Take A1G A40C: the self-cleavage amounted to 0.218. Regarding C14U U18A, the self-cleavage was 0.635. For the variant G13C C19A, the self-cleavage came to 0.0574.

C9U G48U: the self-cleavage was found to be 0.646. The same measure for U31C G45C: 0.593; for G38C G48U: 1.06; for C15U G28U: 0.973. The same measure for G13A C20G: 0.115; for G16A G48C: 1.08. The same measure for C9G C27A: 0.098. With C25G G36A, the self-cleavage came to 0.103.

The values above are taken from the RNAGym collection of RNA variant scans (doi:10.7554/elife.80360).
